According to the DeepSol protein solubility set:

Test: soluble on expression in E. coli; label from the status in PepcDB or PDB records

Row | Sequence | soluble on expression in E. coli
1 | GQLNVEHRQFLSQGLQGQSKGQSSVVVQPELYWDFQSGESSFTFTPFFRVDSLDDERTHCDIREALFLTYWDDYELRVGISKVFWGVTESAHLVDVVNQTDAVEAVDGEDKLGQPMVHFTAIKDWGAFHAMVLPYFRERTFAGQDGRLRTEPVISDNAIYESSREEKHIDVAFRYSKMLGDWDIGLSYLYGTNRDPYFRFEQGELKPYYALMSHFGIDVQGIVGDWLWKLESVYRDSYDHHVGVVTGFE | not soluble
2 | MKLELSYSDHLQLSESLNELGQTTRITQLEPGEGKYTMSFKQSTGIALAEIQSTQPLLYEGWGTTWSVDFNWITPTCHLNDPFGYCEGYEMKETSLGGFNTLNTSPGNSWGKYSNNCSSTACMLDKNILMKMLKECNAAQAIDNLSKARGLDVSSESLYQLKKLTRKDLVRGIMNPTKYYDLIVACLEGGDKRGYRKGLTKNYRLLGEIVQLSHDSRRMSSPMTLSDVCQYLDTGQASLYRVCQDYFGMGIIEMMTQIRLEEARRALLMFKQNEKNHALTVRDVALGYGFKHQGRFSRRYFTSFGELPSQTLDRSQEL | not soluble
3 | METQDVVAKHYDELASEDRATRKSSKILSLRNLNNWVKSVLIALHTRPGYSVLDLACGKGGDLQKWQSQQITQYVGCDISKESLKTAQQRYQQLKKCTFTAQFLCGDCFSCRLSRYLEPDRNFHIVSCQFSMHYAFSCEEKVRRLLENVTERLVAGGFFIGTIPDSNVLVRKLRASSGLEFGNEFYRVVFDDSSSKTFTKPFGIRYHFYLESSVLDIPEYLVVMPVFEKLAKGYGLELQLVMNFHEFITMYLSAGSPFISLFHRMNILQDGGLSPEFWDTAYLYTVFAMKKQGASPWLGLSPESISYVDNTSFERKVIVMMDDEELDSERITFVDKEWNEMIPKRIKLQK | soluble
4 | MAHHHHHHMADSIKSSNSFQKLDNIDAKETSTVDRKWVALTAYQPVDVVTKTVEVPIIKTVEKYVPKTIIQEKIIHVPKNVTHIVEKIVEVPEVKYIEKIVEVPHIHYKNKYVPKIEIVEKVVERQKIIEKWHDKIVEVPQIKEVVRFKQIEDSEEIIKYVPRNSKNIDWEDEYKKYTESKGLQRYSLDQNNIYQQANSFNQFNENAYNQNAFNRSYELLNKQSSVKSQNNASGENFSQMNFYNQYSGANFEQERSIQASNFEPSGSMQLKRLSSEEIKPAGCCSAACT | soluble
5 | MKSFDGHNDLLARLWLSEHPDPVGMFLKGQLPGHLDFARCQQAQFAGGLFAIFVPPFDYVKNNHPYKLRKSAQAGFDTQDIHHIVFTQLDYIKQIASRSDRRIQICLSVEDIQFCLQQDIMAVVIHLEGAEVLDSEFGVLEQLHARGLRSIGPLWNLPNQFGHGLQASFPHSPDTGLGLTDQGKALIQLCSEKRIMIDVSHMNEKAFWDTAKISELPLIATHSNVHQLCPQPRNLTDAQLEAIQASQGCVGVNFDTAFLRPDGQRNAATSLDLILEHIEYLMHKLGEDQVAFGSDFDGGFISDHLKDVTGLIHLQQAFERRGYSQALQEKLCHQNWLSALQRVWHPAC | not soluble
6 | MSLQILTRKMPGQFKVGCMDLMIEEAAGSGLFMRLFFPTDSEITGPSSLPVWIPRPEYAYGVGEYLGHSPHQMDLISSLVIGDKRVDCIDNAQLSTKSDKWPVLVFSHGLGGSRTFYSTYCTSLASHGYVVAAVEHRDSSACWTYKLVEKNGTLVEKPMKIKLVDRNDKDQFKIRNEQVGKRAEECAKAVKILEQLDSGNVKDKVIIGNNANLEFFKNKLLTTTASIIGHSFGGATSIASSSSDFQKAIVLDGWMYPLDQNQQEQAKQPIMFLNVGDWQWNENLEVMRKILPNNEGNILLTLSGAVHQSFTDFPFVFPNWLAKQFGVHGPTEPYLCMQSAIELTLSFLKDGKEGHHHHHH | not soluble
7 | MAHHHHHHMPRSIRVRHGDPDVAEGALTIEVPSSPDADNKAVGDARTPVASLGASSAFFTTYSTVSGDVAHPCANIASGAAPSDEVSPLTSALFMSVDSTPLASSCATKTAASLVNVRSFNSSATVVSVELPNLQSEHAAMTATSCFATRSRDTEAPAAAAAASATNPPPLRHPLGSAPIEGGGGQTQLAGEADTPVQDRTAAPSSSPLMAKASVSASFSGDSSKRCSHTVQSGLSDDLQLTQTTCYLPLLGSAGSREVQRSGDDIDARWVAERESVPAAEPARTTVGNDSFPAEGSEGAMVATTQSASTDVRAAACTVPASNISNTVAATATDVAAPLCPKFEVLATVPAPLVGRVPIRIHWCCAAHWRAVQRTERGAQWAVDGAPADVYCVPAHRNAKRERRSLSASCVEAKSESERGGRSFSGTGENTAWLRDAAGEVKPQHWEVRALSSAVGAPGSTLYDDSNYDAEHEKHGSLKTRSGLPHVHSHSCTDMLTCEFCGHAVERYHSEDCDDEASEASTSMTQTGRACSAPPGRFQDCHGCASAEARSLSSSKIVAFRSNQPSILTPQLLLSSSESAETTVDLDMSGAISSVDVPSWSDSAREEALMAAVALLQ | not soluble
